{"source": "paper PMC10058814", "about": "“Identification of a Thermostable Levansucrase from Pseudomonas orientalis That Allows Unique Product Specificity at Different Temperatures” (Polymers, 2023)", "proteins": {"B1": {"name": "Cedi-LS (Celerinatantimonas diazotrophica) (protein)", "chain": "MTLQDKVMTTAWSRADALKVHADDPTTTQPEVSISFPTMDENLFIWDTLPLRTLDGSIVSVDGWSVIFTLTAIKDPETYKNADGSYDITTDWENRHGRARIYYWYAKDSKNWILGGRVMREGVSPTTREWAGTPILLNDQGDIELYYTCVTPGATIAKVRGKITTTENAVELSEFDHVTELFSADGFYYQTEEQNQFWNFRDPSPFIDPKDGRLYMVFEGNVAGNRGSHEITTTDMGDVPPGYSDVGGARYQAGCIGLAVATDTDGNNWQLLPPLITAVGVNDQTERPHFVFKDGKYYLFTISHKYTYADGLTGPDGVYGFVSDSLFGPYQPLNGSGLVLGNPSSQPFQTYSHCVMPNGLVTSFIDSVPSTSDDDYDGDYRIGGTEAPTVQIKLEGNQTFMVKEFDYGFIPPMKNIVLQ", "notes": "recombinant levansucrase from the authors' earlier work; construct not described here"}}, "substrate": "OC[C@H]1O[C@@](CO)(O[C@H]2O[C@H](CO)[C@@H](O)[C@H](O)[C@H]2O)[C@@H](O)[C@@H]1O", "assay": "kinetics of glucose and fructose release; nonlinear Michaelis-Menten fit", "format": "biochemical, Celerinatantimonas diazotrophica", "conditions": "hydrolysis reaction; assay conditions for Cedi-LS not stated separately", "description": "kinetics of glucose and fructose release; nonlinear Michaelis-Menten fit on Cedi-LS", "data": [{"protein": "B1", "values": [{"measurement": "Km", "value": "57 ± 2", "unit": "mM"}, {"measurement": "kcat", "value": "332 ± 22", "unit": "s⁻¹"}, {"measurement": "kcat/Km", "value": 5800, "unit": "M⁻¹ s⁻¹"}]}]}
